The supplement of paper PMC12042874
± gives the uncertainty stated by the source.

Test: amyloid nucleation score (Sup35N fusion, yeast selection) (log enrichment); library NNK2; higher = more nucleation; inactive = no reads after selection
Summary of the method: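 The nucleation score is the DiMSum log enrichment of output over input reads, centred on the mode score of non-aggregating sequences. Only sequences with 100 or more input reads were scored, using Illumina sequencing of input and output plasmid inserts. Psi-negative yeast expressing Sup35N fused to peptides of 20 random codons were induced 24 hours with 100 μM copper sulfate and grown 7 days at 30°C on medium lacking adenine and uracil.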

Substance	amyloid nucleation score
FRALKMISDPSRHSVLL	-0.02 ± 0.34
GSCRDLDLLLERHWRVVSNL	0.903 ± 0.57
WIVSF	0.131 ± 0.29
FKICGTFDAFKKL	inactive
SLSGRLMNFYIMQNSIPTWW	6.792 ± 0.041
SSYRRLTQSTLRVDRHRLFY	0.732 ± 0.4
SMVVGMGSCPNVTRGAGLKR	1.06 ± 0.17
LGIASLQNGSGIGAWQAY	0.04 ± 0.76
FSFNIPQFINV	inactive
PSKPC	-1.72 ± 0.75
NLCGCAMVCWVPF	-0.217 ± 0.54
IGSEDPRHFRSVCWSYNDTL	-0.789 ± 0.61
VYKQVRNKVCSYLSLTERRW	0.654 ± 0.57
FSDWIWTYCSQSFNGQE	-0.817 ± 0.76
STWDGWGFSWISFL	-0.635 ± 1
MIDRE	0.83 ± 0.2
REVWCRISLKFFYMGDLFVR	0.008 ± 0.8
GNFVRLLV	-0.031 ± 0.37
NAYLFMFFRRGLWFSVLPFV	-1.09 ± 1.1
VDSVTGVMTFSTRSRSSDGD	0.844 ± 0.43
INSASESKGKGIILSTNGDS	-0.717 ± 0.39
LDNACSQGGGDFRLSLS	-0.773 ± 0.55
GHLYSISCVFNI	8.633 ± 0.044
HVWLIGFNLFLYFITLVVWV	-0.459 ± 1.1
LSHMPDMALAKPWHRARD	5.04 ± 0.076

Substance	amyloid nucleation score
ARNTTGGSYV	0.504 ± 0.74
MALVSTSSFFDV	inactive
NRPMEGRLKWSMTVLIVSLY	-0.187 ± 0.65
WSRTVYGIFCKIG	0.208 ± 0.65
FCKSVHKVHGHNVWCTLCAG	1.11 ± 0.18
IAICVNARE	0.838 ± 0.35
ELLGSLCRNRVGTWTICNMS	0.52 ± 0.34
RLWCLRSTNEMAVSCYRSWD	4.47 ± 0.049
ENFGVVMRWGYIRLLLQANW	inactive
FSSNLISPSVEISCVLIWLG	5.67 ± 0.074
FFKISQSTTTEQLVYSCYSS	3.02 ± 0.095
FMTGSFEENS	-0.945 ± 1.1
VSCNSYMGVLMDDGRVETLE	0.486 ± 0.2
YHRYAAS	-0.077 ± 0.39
AWYWN	-0.49 ± 0.33
RYQGLLTPVTAGRLFICIP	-0.363 ± 1.1
AHNDVNGVFLMPVRSLDFKH	-1.17 ± 0.64
IHNWIDSVERTALDMWERNA	1.98 ± 0.14
FIMVQRLSCLVVQISRAGAC	3.79 ± 0.12
VNASD	2.3 ± 0.25
IIQISSYSALWFRW	0.724 ± 0.14
TICGSCT	0.045 ± 0.79
LDTHRPPYQDRVWLTRSANT	1.79 ± 0.24
CTAYYCDVSLNYVVRYNFPL	inactive
YYKFTVCWMYYLYQKSRTLL	-1.15 ± 0.78

Substance	amyloid nucleation score
RKPPMPRFQLDSNRQKG	0.313 ± 0.64
FWYLLSLGQIIRSVNLGNWI	-0.78 ± 1.1
LHFTYCGSVMNVANDMVFVQ	0.106 ± 1
NAGVYLFYMCICYVKYFFYM	-0.87 ± 0.78
KRMKRLVCGTRVDMYRGSLW	-0.222 ± 0.33
VLVNKGLTMHFACSYV	0.547 ± 0.81
TSVYPRGYFPVSCACYFLLE	-1.3 ± 0.48
ASQRTVA	1.6 ± 0.36
NLNDLVVLELYSRFLLNWFE	-0.282 ± 0.46
MKGALWYSDKAT	0.102 ± 1.1
LGQSCTYQCQQLCSLSHNRV	-0.214 ± 1.1
IKISYTLMASEAVNTFS	-1.22 ± 1.1
LFRWM	3.92 ± 0.06
SYHRS	0.086 ± 0.24
YEISSLRSFRSVLNWYMSGS	4.6 ± 0.052
TKMYVD	-0.573 ± 1.1
FMCLHSARNVVMRMDVRVVL	4.93 ± 0.078
TMNIKLWGAGTRRMFEMEPG	2.35 ± 0.22
IAKGPGALYRSKMRWSGFVL	-0.817 ± 1
IIISYMFKHSWIKKGRHKLV	0.597 ± 0.5
QFFRPRDVRERAEWNLAKLV	2.61 ± 0.12
RLRNLFSYWLSEERSGPDGW	2.03 ± 0.14
ILQWEVSWLCKNHT	0.683 ± 0.35
SLDECHLSRRTNS	0.411 ± 0.34
VFLGVSGETVNSTGYFTGMN	-2.13 ± 1.1

Substance	amyloid nucleation score
LAKADPWHLKMLFSAMLRQD	0.332 ± 0.26
SPWCPQLSTGGCSNLGSLRR	0.612 ± 0.31
VVRCRWQDTRTVSQGWVIP	0.97 ± 0.33
IMFASKHCSVGVMLKIGRTF	0.209 ± 0.33
GAVRVYNYNYQEVKTLLLVE	-0.425 ± 0.32
VRSRKCLSVRLFSSVMGVSD	-0.88 ± 0.54
CDPWQGYRWLP	-0.665 ± 0.37
YMVLSHVVQPFNHLGISWPC	inactive
IPKHLSSSVYAYYDLRLVFV	0.08 ± 0.22
HADNARRYQTTLMVGLRVVG	0.409 ± 0.49
NWASKTFYGSYGSRYCQFGE	1.07 ± 0.59
YYIAI	-0.619 ± 1
SDMRCGYMLRCWLVQRVSHR	1.48 ± 0.54
DLFNRNIVVCSLFLGYMVTI	2.99 ± 0.092
NDTCIRLWRWLRAQDSWLGN	0.668 ± 0.37
FSKSVVGSPERKHVDT	0.948 ± 0.34
LQRVF	1.19 ± 0.47
MVTTSSVSNADLNVDMWLEP	1.01 ± 0.2
SSLCGNCLGVEVVEQVISCR	-0.12 ± 0.23
IIHDLSSFRKCSLHPDIGSS	-0.373 ± 0.37
LKCRVITQSCIPSSINRLDG	-0.02 ± 0.22
LLETMAK	inactive
VLNCNRYFRCSANNIEASES	0.27 ± 0.56
YNSCSYEIILGDFLWLLTGQ	0.624 ± 0.2
TMKWLCN	4.69 ± 0.054

Substance	amyloid nucleation score
SWFVRLGTRNWYTLRRVVIG	-0.315 ± 0.29
TSFFPIILKRVPSIKLGTRK	inactive
GRCSSSLRICRSNWGAY	0.45 ± 0.22
CLLYDQGFWQAGVLNVVAAR	-0.085 ± 0.29
SMNVYVDGFCWLAHVLNVVW	6.928 ± 0.035
LQGRYNSTYYMDVAGLVVSE	-1.23 ± 0.76
CNNQEMPTSGWMSCFSCALC	1.48 ± 0.32
NELCRKPLNLGCISSYVFIE	-0.584 ± 0.3
WFPRSNAYLCMCFFVLREYQ	0.428 ± 0.66
IRMAISLFNFGFSNMFMLKE	-1.94 ± 1.1
ERMFNMIALVRRAGGERNRT	4.43 ± 0.059
HEMRDGNSRLMFYWGVSCNM	0.062 ± 0.45
VSYGVWSCIRGL	-0.324 ± 1.1
GKGRMYES	0.738 ± 0.24
YVSDYG	0.199 ± 0.8
SPTGPMYRNLLSKKPYVR	-0.909 ± 0.35
QRPRGLNLRYTDTRWIFYGP	4.37 ± 0.045
VVRSHTLQNSALRCWSDG	0.935 ± 0.39
KPGMRNNYFLAFGFYCTCTR	1.59 ± 0.21
WLIGRNAKSWAWVFLKRSTG	0.392 ± 0.25
TVIRRIYFRRPGRSNMSCTN	-0.067 ± 0.65
ICNALCLYSVNLLPGTLMGI	7.49 ± 0.027
CKYFLLVFIVVNYFGLGPMP	inactive
QFFTLFDVSRRLHFNTWLRL	-1.14 ± 0.64
RMTEA	2.32 ± 0.21

Substance	amyloid nucleation score
FCPFWDSWWGKPCRPAIDSA	0.683 ± 0.74
DMTVLYCMFCSLSWQINCFR	0.838 ± 0.25
WYRLLGFAMD	-0.603 ± 1.1
SLNPTRSWMRFNINKAHFLL	-0.204 ± 0.48
IPKKSNLFLQMETMQLLFFD	2.67 ± 0.17
RSNSMMLCFASDIVRFYHMG	2.71 ± 0.14
CLWHWSNGRNVGKIYLFAVT	-0.377 ± 0.24
DGASIFSSAFIVGSGTLKQM	-0.911 ± 0.78
RTQSLASQ	0.144 ± 0.56
YSRVILFHNGQMGVVMVPRW	inactive
ITDVFSMWIF	-0.73 ± 0.5
EVVNWSR	-0.367 ± 0.35
FLDGAYSWLWLGSYIRGLSH	-0.262 ± 0.56
QVKMSSYFVLFFAGPPHVSI	-1.13 ± 0.76
VWRSLMCFSWNPTMHRLISV	0.363 ± 0.53
YPCVMFFPEPGEYCLVYRC	-0.608 ± 1.1
VRTWCAFYTVIRGWYRLLGS	0.231 ± 0.5
FWVKVNMSLGMSNLFVYACL	6.298 ± 0.024
KLGCYVS	3.23 ± 0.088
YKETFGIA	-1.36 ± 0.49
VSSFVKLIWQVALINWVRMG	inactive
EACVISNGISILL	-0.54 ± 0.35
YSGTWLMVHKNLMVRKKLVP	0.499 ± 0.38
VIYVPLGKNLKIFSKHSFFG	-0.906 ± 0.76
ESLGEVKGYTSDPMVLVCFE	-0.167 ± 0.23

Substance	amyloid nucleation score
FNDRHVCHREKFSRELGFCS	-0.479 ± 1
SDNVLNDSSCLLYINFGAGQ	2.69 ± 0.15
DVVEDF	-0.02 ± 0.49
GSVFLRGTYWVLKDVCGWKE	0.391 ± 0.56
DGPIPLLSGMGHGGRYLWCV	1.01 ± 0.18
GGREARMGRKKGERVYRVRF	0.657 ± 0.56
SSAFFSFNWADKWCMLMCLV	-1.41 ± 1.1
SSSEFDPSSGSCLYT	-0.847 ± 0.34
LLALTFSTETQGRHTKCHSL	4.07 ± 0.094
MRLFFLVLICAYVVESGFQC	0.72 ± 0.25
PTRKSIYSLPRARSLIPQNT	-1.26 ± 1.1
GTRNVLIHAK	-1.26 ± 1.1
YAVENTLYHVRVVTLQSISW	0.153 ± 0.79
FESRFYHSVLTIVTLFTYPA	-0.025 ± 1.1
NCFKECVVPHR	-0.043 ± 0.37
SMYLTETRLHCHDWSAAAWG	0.663 ± 0.21
RSYVHYGLLAWCYIRVSWDP	0.428 ± 0.44
DCLNRLY	0.138 ± 0.76
WWTAQGCTELTVS	0.855 ± 0.27
STVKVLVPEVHWSKATPRNY	2.99 ± 0.14
FYEHRIIFFVLGFFNATTGS	inactive
